Among the data in patent publication US20180022808A1 are percent of cells with Phl p 2 bound to their cell surface values, retold here.

This experiment addresses recombinant Phl p 2 (Biomay AG) (UniProt P43214). Kind of experiment: flow cytometry scatter plot on 16HBE14o- cells pre-incubated with 1 µg of the conjugate at ratio 1:0.25, then 1 µg Phl p 2, rabbit anti-Phl p 2 (FIG. 3 C). On the technique in general: A flow cytometer gives signals particle by particle.
Chain of UniProt P43214 (P43214 27-122 limits assumed): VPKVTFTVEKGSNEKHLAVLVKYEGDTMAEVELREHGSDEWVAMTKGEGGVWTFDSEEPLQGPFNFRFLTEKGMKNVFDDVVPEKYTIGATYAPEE

In the case of “P2/ICAM1 bi-specific antibody conjugate (streptavidin-conjugated Phl p 2-specific human IgG1 coupled to biotin-labeled ICAM1-specific mouse IgG1) (from UniProt P22629 37-163) (bispecific antibody)”, the percent of cells with Phl p 2 bound to their cell surface worked out at 50%.
